From US7026443

target: HLA-A*0301 (human); assay: not given; conditions: not given

| Binder | relative binding ratio (IC50 of standard peptide / IC50 of test peptide) | relative binding ratio (IC50 of standard peptide / IC50 of test peptide) (ratio to standard peptide) |
| --- | --- | --- |
| LLIRCLRCQK (modifications not checked) [HPV18 E6 peptide … (position 101, 10 amino acids)] | 0.047 |  |
| DSVYGDTLEK (modifications not checked) [HPV18 E6 peptide … (position 83, 10 amino acids)] |  | 0.0005 |
| EVFEFAFK (modifications not checked) [HPV18 E6 peptide EVFEFAFK (position 43, 8 amino acids)] |  | 0.0025 |
| DIEITCVYCK (modifications not checked) [HPV18 E6 peptide … (position 27, 10 amino acids)] |  | 0.0089 |
| SVYGDTLEK (modifications not checked) [HPV18 E6 peptide … (position 84, 9 amino acids)] | 0.08 |  |
| NTGLYNLLIR (modifications not checked) [HPV18 E6 peptide … (position 95, 10 amino acids)] | 0.0002 |  |
| CIDFYSRIR (modifications not checked) [HPV18 E6 peptide … (position 68, 9 amino acids)] |  | 0.0001 |
| LIRCLRCQK (modifications not checked) [HPV18 E6 peptide … (position 102, 9 amino acids)] | 0.019 |  |
| LTEVFEFAFK (modifications not checked) [HPV18 E6 peptide … (position 41, 10 amino acids)] | 0.0001 |  |

target: HLA-A*1101 (human); assay: competition with 125I-labelled standard peptide for purified HLA, gel filtration; conditions: not given

| Binder | binding affinity ratio (IC50 of standard peptide / IC50 of test peptide) | binding affinity ratio (IC50 of standard peptide / IC50 of test peptide) (ratio relative to standard peptide) | relative binding ratio (IC50 of standard peptide / IC50 of test peptide) (ratio to standard peptide) | relative binding ratio (IC50 of standard peptide / IC50 of test peptide) |
| --- | --- | --- | --- | --- |
| WTGRCMSCCR (modifications not checked) | 0.0008 |  |  |  |
| MLIQPPKLR (modifications not checked) [… (HPV31 E1, position 285, 9 amino acids)] |  | 0.0014 |  |  |
| GLSFTDLVR (modifications not checked) [HPV45 E1 209 …] |  |  | 0.0025 |  |
| WLQPLADAK (modifications not checked) [… (HPV31 E1, position 489, 9 amino acids)] |  | 0.0002 |  |  |
| NIRGRWTGR (modifications not checked) | 0.0005 |  |  |  |
| LLIRCLRCQK (modifications not checked) [HPV18 E6 peptide … (position 101, 10 amino acids)] |  |  |  | 0.12 |
| LILALLRYK (modifications not checked) [HPV45 E1 267 …] |  |  | 0.18 |  |
| DSVYGDTLEK (modifications not checked) [HPV18 E6 peptide … (position 83, 10 amino acids)] |  |  |  | 0.0051 |
| NSNAAAFLK (modifications not checked) [HPV45 E1 379 …] |  |  | 0.37 |  |
| EVFEFAFK (modifications not checked) [HPV18 E6 peptide EVFEFAFK (position 43, 8 amino acids)] |  |  |  | 0.018 |
| CVQSTHVDIR (modifications not checked) | 0.0001 |  |  |  |
| PLCPEEKQR (modifications not checked) [HPV31 E6 peptide … (position 109, 9 amino acids; Seq. Id. No. 10308)] |  |  |  | 0.0005 |
| PLCPEEKQR (modifications not checked) | 0.0005 |  |  |  |
| DIEITCVYCK (modifications not checked) [HPV18 E6 peptide … (position 27, 10 amino acids)] |  |  |  | 0.0021 |
| SVYGDTLEK (modifications not checked) [HPV18 E6 peptide … (position 84, 9 amino acids)] |  |  |  | 0.23 |
| TMLCMCCK (modifications not checked) [HPV18 E7 peptide TMLCMCCK (position 60, 8 amino acids)] |  |  |  | 0.024 |
| NTGLYNLLIR (modifications not checked) [HPV18 E6 peptide … (position 95, 10 amino acids)] |  |  |  | 0.0013 |
| GVLILALLR (modifications not checked) [HPV45 E1 265 …] |  |  | 0.14 |  |
| LVRNFKSDK (modifications not checked) [HPV45 E1 215 …] |  |  | 0.0002 |  |
| CIDFYSRIR (modifications not checked) [HPV18 E6 peptide … (position 68, 9 amino acids)] |  |  |  | 0.0001 |
| LIRCLRCQK (modifications not checked) [HPV18 E6 peptide … (position 102, 9 amino acids)] |  |  |  | 0.0012 |
| LTEVFEFAFK (modifications not checked) [HPV18 E6 peptide … (position 41, 10 amino acids)] |  |  |  | 0.036 |
| CMCCKCEARIK (modifications not checked) [HPV18 E7 peptide … (position 63, 11 amino acids)] |  |  |  | 0.0002 |

same assay, conditions: remark: other sources report otherwise

| Binder | binding affinity ratio (IC50 of standard peptide / IC50 of test peptide) |
| --- | --- |
| GIVCPICSQK (modifications not checked) | 0.067 |

target: HLA-A*0301 (human); assay: as above; conditions: not given

| Binder | binding affinity ratio (IC50 of standard peptide / IC50 of test peptide) | binding affinity ratio (IC50 of standard peptide / IC50 of test peptide) (ratio relative to standard peptide) | relative binding ratio (IC50 of standard peptide / IC50 of test peptide) (ratio to standard peptide) | relative binding ratio (IC50 of standard peptide / IC50 of test peptide) |
| --- | --- | --- | --- | --- |
| WTGRCMSCCR (modifications not checked) | 0.0003 |  |  |  |
| MLIQPPKLR (modifications not checked) [… (HPV31 E1, position 285, 9 amino acids)] |  | 0.0005 |  |  |
| GLSFTDLVR (modifications not checked) [HPV45 E1 209 …] |  |  | 0.0009 |  |
| WLQPLADAK (modifications not checked) [… (HPV31 E1, position 489, 9 amino acids)] |  | 0.0005 |  |  |
| NIRGRWTGR (modifications not checked) | 0.0014 |  |  |  |
| LLIRCLRCQK (modifications not checked) [HPV18 E6 peptide … (position 101, 10 amino acids)] |  |  |  | 0.047 |
| LILALLRYK (modifications not checked) [HPV45 E1 267 …] |  |  | 0.27 |  |
| DSVYGDTLEK (modifications not checked) [HPV18 E6 peptide … (position 83, 10 amino acids)] |  |  |  | 0.0005 |
| NSNAAAFLK (modifications not checked) [HPV45 E1 379 …] |  |  | 0.0057 |  |
| EVFEFAFK (modifications not checked) [HPV18 E6 peptide EVFEFAFK (position 43, 8 amino acids)] |  |  |  | 0.0025 |
| CVQSTHVDIR (modifications not checked) | 0.0049 |  |  |  |
| PLCPEEKQR (modifications not checked) [HPV31 E6 peptide … (position 109, 9 amino acids; Seq. Id. No. 10308)] |  |  |  | 0.0002 |
| PLCPEEKQR (modifications not checked) | 0.0002 |  |  |  |
| DIEITCVYCK (modifications not checked) [HPV18 E6 peptide … (position 27, 10 amino acids)] |  |  |  | 0.0089 |
| SVYGDTLEK (modifications not checked) [HPV18 E6 peptide … (position 84, 9 amino acids)] |  |  |  | 0.08 |
| TMLCMCCK (modifications not checked) [HPV18 E7 peptide TMLCMCCK (position 60, 8 amino acids)] |  |  |  | 0.024 |
| NTGLYNLLIR (modifications not checked) [HPV18 E6 peptide … (position 95, 10 amino acids)] |  |  |  | 0.0002 |
| GVLILALLR (modifications not checked) [HPV45 E1 265 …] |  |  | 0.0058 |  |
| LVRNFKSDK (modifications not checked) [HPV45 E1 215 …] |  |  | 0.0005 |  |
| CIDFYSRIR (modifications not checked) [HPV18 E6 peptide … (position 68, 9 amino acids)] |  |  |  | 0.0001 |
| LIRCLRCQK (modifications not checked) [HPV18 E6 peptide … (position 102, 9 amino acids)] |  |  |  | 0.019 |
| LTEVFEFAFK (modifications not checked) [HPV18 E6 peptide … (position 41, 10 amino acids)] |  |  |  | 0.0001 |
| CMCCKCEARIK (modifications not checked) [HPV18 E7 peptide … (position 63, 11 amino acids)] |  |  |  | 0.0014 |

same assay, conditions: remark: other sources report otherwise

| Binder | binding affinity ratio (IC50 of standard peptide / IC50 of test peptide) |
| --- | --- |
| GIVCPICSQK (modifications not checked) | 0.0003 |
